Key:
N-C3 = target: T1, N-C3 (Homo sapiens, UniProt Q13018); experiment: SPR kinetics of patient sera autoantibodies over immobilized N-C3; details: patient autoantibodies in sera binding to immobilized N-C3
T1 construct: the N-terminus to and including CTLD3 (N-C3); no tag is printed; made in house; host or cells: HEK 293-EBNA1
Procedure: Quantitation of serum antibody concentrations was performed on the Proteon XPR-36 (Bio-Rad) SPR instrument where the initial binding rates of purified human anti-PLA2R binding to N-C3 were used as standard curve to determine the concentration of anti-PLA2R in the unknown serum samples.

[1] = tested on: human anti-PLA2R autoantibodies; experiment: Western blotting of PLA2R fragments with human anti-PLA2R autoantibodies; format: binding
[2] = tested on: anti-PLA2R autoantibodies in patient sera; experiment: N-C3 inhibition ELISA (autoantibody binding to N-C8); set-up: species or system human; details: N-C3 9.0 μg ml-1; 43 PLA2R-positive sera
Procedure: The ELISA method was a variation on the standard assay previously described. Briefly, PLA2R (N-C8) at 125 ng ml-1 was coated onto ELISA plates overnight and plates blocked with Superblock (Thermo Scientific). 50 μl of 1:100 dilution of patient serum plus 50 μl of either buffer or NC-3 fragment to give a final concentration in the well of 9.0 μg ml-1, 0.9 μg ml-1, 0.09 μg ml-1 and 0.009 μg ml-1 were preincubated for 2 hours at room temperature before adding to the ELISA plate for a further 2 hours with shaking. Following extensive washing, anti-human IgG-HRP at 1:25,000 dilution in assay buffer was added to all wells for 2 hour incubation. Following washing, the plate was developed by adding substrate and the reaction terminated at 5 minutes by addition of 1 M H2SO4. Plates were read at 450 nm and inhibition curves constructed. The concentration of 9.0 μg ml-1 was used to compare the inhibition profile of 43 different sera previous reported as anti-PLA2R positive.

[3] = Sedimentation velocity (analytical ultracentrifugation); format: physicochemical; details: for Frictional ratio (f/f0): from Mass derived from MALLS
Procedure: The experiments were performed using double sector cells and a rotor speed of 74,500 g for N-C8 and 116,500 g for N-C3, taking 150 scans at 1.5 minutes intervals at a wavelength of 280 nm and at a temperature of 20° C. The sedimenting boundaries were analyzed using the program Sedfit v8.7.

[4] = Hydrodynamic radius from QELS; format: physicochemical; details: pH 7.4
[5] = Dual polarisation interferometry, pH dependent conformational change; format: physicochemical; details: pH range 5.0 to 7.2 screened; thickness of protein layer
Procedure: Dual polarisation interferometry was used to provide quantitative information on the thickness, the refractive index and density of the immobilized PLA2R layer with the capability to measure conformational change in real time. The DPI experiments were performed on a Farfield AnaLight instrument. […] N-C8 and N-C3 were regenerated between the different pHs with running buffer pH 7.2. Analysis of the raw data and determination of density, thickness and mass per unit area was achieved using the AnaLight® Bio200 analysis software (Farfield Scientific).

[6] = tested on: purified anti-PLA2R antibody; details: pH 6.2 (tight) vs pH 7.2 (extended)

T1 sequence (Q13018 21-643 limits assumed): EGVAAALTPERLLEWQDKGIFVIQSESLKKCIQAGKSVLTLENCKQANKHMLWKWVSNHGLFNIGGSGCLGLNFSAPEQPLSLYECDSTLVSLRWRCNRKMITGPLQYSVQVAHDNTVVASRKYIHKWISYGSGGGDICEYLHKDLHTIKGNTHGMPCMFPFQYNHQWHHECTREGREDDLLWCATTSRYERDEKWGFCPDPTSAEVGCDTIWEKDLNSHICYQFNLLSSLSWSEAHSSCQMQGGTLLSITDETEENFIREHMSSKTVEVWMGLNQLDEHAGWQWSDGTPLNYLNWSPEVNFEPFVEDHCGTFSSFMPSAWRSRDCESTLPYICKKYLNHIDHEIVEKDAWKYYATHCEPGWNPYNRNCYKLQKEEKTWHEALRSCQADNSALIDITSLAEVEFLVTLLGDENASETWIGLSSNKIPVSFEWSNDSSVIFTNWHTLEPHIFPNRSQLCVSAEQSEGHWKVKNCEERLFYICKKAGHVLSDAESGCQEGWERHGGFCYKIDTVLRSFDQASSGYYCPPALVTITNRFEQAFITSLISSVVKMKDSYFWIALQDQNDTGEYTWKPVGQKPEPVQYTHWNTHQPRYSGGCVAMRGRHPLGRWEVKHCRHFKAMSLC

Row | Substance | Kd (N-C3) [pM] | recognition by human anti-PLA2R autoantibodies [1] | Sedimentation coefficient (S20, w) ([3]; pH 6.2) | sedimentation coefficient ([3]; pH 6.2) [s] | Frictional ratio (f/f0) ([3]; pH 6.2) | sedimentation coefficient ([3]; pH 7.2) [s] | Sedimentation coefficient (S20, w) ([3]; pH 7.4) | Frictional ratio (f/f0) ([3]; pH 7.4) | Hydrodynamic radius [4] [nm] | other results
1 | EDDLLWCATTSR [compound 3, Fibronectin type II domain peptide] | 43 | – | – | – | – | – | – | – | – | –
2 | N-C2: recombinant PLA2R fragment, the N-terminus to and including CTLD2 | – | neither N-C2 nor C3 fragments were recognized | – | – | – | – | – | – | – | –
3 | N-C3: recombinant PLA2R fragment, the N-terminus to and including CTLD3 | – | recognized | 5.35 ± 0.10 | 5.3 | 1.39 | 5.3 | 5.29 ± 0.09 | 1.38 | 3.81 ± 0.23 | patient sera in which binding of autoantibodies to N-C8 was effectively competed [2]: approximately 90%
4 | N-C8: recombinant full length extracellular PLA2R | – | recognized | 9.23 ± 0.25 | 9.2 | 1.32 | 8.1 | 8.08 ± 0.21 | 1.51 | 6.25 ± 0.19 | pH region where the transition in conformation occurred [5]: ~6.2 pH; difference in affinity of anti-PLA2R binding between conformations [6]: no difference in affinity
5 | YLNHIDHEIVEKDAWK [compound 4, Linker between CTLD1 and CTLD2] | 85 | – | – | – | – | – | – | – | – | –
6 | YYATHCEPGWNPYNR [compound 5, Linker between CTLD1 and CTLD2] | 32 | – | – | – | – | – | – | – | – | –
